Patent publication US20220096608

Sequence of Mono-PEGylated Micro-plasmin variant (20 kDa PEG) V88C Catalytic Domain (SEQ ID NO. 10) (chain, as listed by the source V88C): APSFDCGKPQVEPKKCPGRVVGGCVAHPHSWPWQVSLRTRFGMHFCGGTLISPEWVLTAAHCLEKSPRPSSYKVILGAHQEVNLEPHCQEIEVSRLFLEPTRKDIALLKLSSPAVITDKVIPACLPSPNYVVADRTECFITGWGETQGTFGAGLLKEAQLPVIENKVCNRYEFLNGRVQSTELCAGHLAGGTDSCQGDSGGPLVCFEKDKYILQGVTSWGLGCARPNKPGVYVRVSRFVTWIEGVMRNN
Sequence of Mono-PEGylated Micro-plasmin variant (20 kDa PEG) E85C Catalytic Domain (SEQ ID NO. 7) (chain, as listed by the source E85C): as the sequence (chain, as listed by the source V88C) above, with E85C, C88V counted along it
Sequence of Mono-PEGylated Micro-plasmin variant (20 kDa PEG) P86C Catalytic Domain (SEQ ID NO. 8) (chain, as listed by the source P86C): as the sequence (chain, as listed by the source V88C) above, with P86C, C88V counted along it
Sequence of Mono-PEGylated Micro-plasmin variant (40 kDa PEG) V88C Catalytic Domain (SEQ ID NO. 10) (chain, as listed by the source V88C): as the sequence (chain, as listed by the source V88C) above
Sequence of Mono-PEGylated Micro-plasmin variant (40 kDa PEG) E85C Catalytic Domain (SEQ ID NO. 7) (chain, as listed by the source E85C): as the sequence (chain, as listed by the source V88C) above, with E85C, C88V counted along it
Sequence of Bi-PEGylated Micro-plasmin variant (20 kDa-20 kDa PEG) E85C-H87C Catalytic Domain (SEQ ID NO. 11) (chain, as listed by the source E85C H87C): as the sequence (chain, as listed by the source V88C) above, with E85C, H87C, C88V counted along it
Sequence of Mono-PEGylated Micro-plasmin variant (40 kDa PEG) P86C Catalytic Domain (SEQ ID NO. 8) (chain, as listed by the source P86C): as the sequence (chain, as listed by the source V88C) above, with P86C, C88V counted along it

Each substance was assayed against α2-antiplasmin (UniProt P08697).
Sequence of α2-antiplasmin (P08697 40-491): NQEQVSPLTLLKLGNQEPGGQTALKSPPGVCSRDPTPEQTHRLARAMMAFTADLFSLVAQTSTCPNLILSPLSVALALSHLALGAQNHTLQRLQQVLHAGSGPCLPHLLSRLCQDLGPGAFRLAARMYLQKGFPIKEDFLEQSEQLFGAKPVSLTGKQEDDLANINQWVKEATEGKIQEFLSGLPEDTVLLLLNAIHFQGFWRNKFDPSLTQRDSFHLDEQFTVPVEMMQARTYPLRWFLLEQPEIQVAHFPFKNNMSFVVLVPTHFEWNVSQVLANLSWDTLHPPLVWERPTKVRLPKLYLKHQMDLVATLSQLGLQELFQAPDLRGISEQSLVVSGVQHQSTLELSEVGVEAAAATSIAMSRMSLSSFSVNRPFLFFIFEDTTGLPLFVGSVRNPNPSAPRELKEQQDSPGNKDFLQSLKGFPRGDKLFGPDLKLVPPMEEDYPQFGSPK
In the case of “Bi-PEGylated Micro-plasmin variant (20 kDa-20 kDa PEG) E85C-H87C Catalytic Domain (SEQ ID NO. 11)”, the “In vitro Half-life (of inactivation by α2-antiplasmin)” value (shortened to “In vitro Half-life”) is reported as >10 min.
For “Mono-PEGylated Micro-plasmin variant (20 kDa PEG) E85C Catalytic Domain (SEQ ID NO. 7)”, the “In vitro Half-life” value was 6 to 7 min.
“Mono-PEGylated Micro-plasmin variant (20 kDa PEG) P86C Catalytic Domain (SEQ ID NO. 8)” was tested, and the “In vitro Half-life” value was 6 to 7 min.
“Mono-PEGylated Micro-plasmin variant (20 kDa PEG) V88C Catalytic Domain (SEQ ID NO. 10)” was tested, and the “In vitro Half-life” value was 6 to 7 min.
“Mono-PEGylated Micro-plasmin variant (40 kDa PEG) E85C Catalytic Domain (SEQ ID NO. 7)” was tested, and the “In vitro Half-life” value was >7 min.
In the case of “Mono-PEGylated Micro-plasmin variant (40 kDa PEG) P86C Catalytic Domain (SEQ ID NO. 8)”, the “In vitro Half-life” value is reported as >7 min.
In the case of “Mono-PEGylated Micro-plasmin variant (40 kDa PEG) V88C Catalytic Domain (SEQ ID NO. 10)”, the “In vitro Half-life” value is reported as >7 min.
